± gives the standard deviation of the averaged measurements.
System: ATP
Experiment: switch fluorescence ratio, 500 uM ATP over buffer (Cy3 cluster intensity, sum of 5 cycles each) (fold (ratio)); higher = stronger signal-on switching upon ATP binding; sequences stand for … in TCGTCGGCAGCGTCAGATGTGTATAAGAGACAGTTTTTTTTTTTTTTTTTTTTTTTTT…TC
Settings: aptamer strand: ATP DNA aptamer (quencher-CACCTGGGGGAGTATTGCGGAGGAAGG + anchor), 100 nM annealed; ATP concentration: 500 uM
Summary of the method: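 Values give the fluorescence ratio for each switch-domain sequence, averaged from per-cluster ratios of summed target-cycle to summed buffer-cycle Cy3 intensity. The Cy3-labelled switching-strand clusters sat on a modified Illumina MiSeq flow-cell, were annealed to 100 nM quencher-labelled ATP aptamer, and were imaged in selection buffer, then after 15 min with 500 uM ATP at 22 °C. Five cycles ran with NaOH stripping and re-annealing between them, and clusters outside 100-1000 RFU were excluded.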
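Further: ATP exposure 15 min at 22 °C before imaging.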

Sequence | switch fluorescence ratio
TAAGAGACGA | 0.98 ± 0.024
CGGGGGTTCT | 1.006 ± 0.0032
GGCACTATCC | 1.09 ± 0.07
AGTAAGATTT | 1.16 ± 0.15
TGCATTGGG | 0.975 ± 0.058
CGTGTGATGC | 1.05 ± 0.015
GGGGGAGCGT | 1 ± 0.03
TTGCCTGCGG | 0.999 ± 0.0067
AGGTACGACG | 0.99 ± 0.013
GATTGTTCTG | 0.9804 ± 0.0049
TATAAGTACG | 1.27 ± 0.016
TTCAGACCGT | 1.016 ± 0.0064
ACGGAGAGGC | 1.14 ± 0.22
TTTAGAAGGC | 1.08 ± 0.11
GGGGGGTATC | 1.01 ± 0.03
TCATGGAAGG | 1.01 ± 0.026
TTGTTGGCGG | 0.994 ± 0.025
GGTGGGGCTG | 0.968 ± 0.03
TGCCATGTGT | 1.032 ± 0.0036
ATCGTTTTGA | 0.989 ± 0.013
TCTACAGTCG | 1.02 ± 0.023
ATAGACACGC | 1.034 ± 0.0078
ATAGGGACAC | 1.07 ± 0.033

Sequence | switch fluorescence ratio
TTGCGTCATT | 1.03 ± 0.016
TATTGTCCTT | 1.019 ± 0.0056
GCTGAAGGGA | 0.99 ± 0.042
TTAGAAGGCA | 1.03 ± 0.036
TTGGTTAGTT | 0.981 ± 0.027
AATATATGT | 1.02 ± 0.023
TTTAGTCGGG | 1.02 ± 0.046
AATTGTGGAG | 0.966 ± 0.023
TTGTTGGGCA | 1.01 ± 0.032
GTTTCTGGTG | 1.13 ± 0.064
CATTCTACTG | 1.04 ± 0.021
CAGTTGGTC | 0.995 ± 0.037
TAAGGCGGTT | 0.984 ± 0.021
GGTTAAACGG | 1.02 ± 0.013
AGTTGTTTGT | 0.966 ± 0.016
TTGAGTACCG | 0.959 ± 0.022
TGGGTCATCT | 1.02 ± 0.065
TGGAAGGGTG | 1.05 ± 0.017
TCGCTGCTTG | 1.065 ± 0.0074
TAGGTGTTGG | 1.02 ± 0.007
AAGTACAAGG | 1.16 ± 0.1
GGATCAGAAG | 1.004 ± 0.0056
CGGTCTAGGG | 0.995 ± 0.019

Sequence | switch fluorescence ratio
TTTGCGGGAC | 1.57 ± 0.47
TTAGGATGA | 1.01 ± 0.027
AGAAACGGAG | 1.02 ± 0.016
TGAGGGTGCT | 1.04 ± 0.037
TGGGGTTTGT | 0.976 ± 0.03
TCGCAGTTTC | 1.7002 ± 0.00038
GGGGAGTTAG | 1.01 ± 0.013
GATCGGCGTG | 1 ± 0.015
ATATCAGGGG | 1.13 ± 0.017
AGGTAGAATG | 0.998 ± 0.0045
ATTTACATCA | 1.02 ± 0.013
AATTATTTT | 0.993 ± 0.02
GGCGGGGGGG | 1.03 ± 0.048
GGAGTAGGCT | 0.938 ± 0.057
CTCGCGAATT | 1.55 ± 0.49
TAAGTGGAAG | 1.01 ± 0.029
AGAAGGGAGG | 0.987 ± 0.011
TAGGAGGTAC | 1.01 ± 0.054
ATTGTTGTTC | 1.06 ± 0.057
AGGGACTGAC | 1.24 ± 0.075
TCGAATATCA | 1.007 ± 0.0097
ATTAAATAGA | 1.02 ± 0.014
TATCTGTCAA | 1.11 ± 0.032

Sequence | switch fluorescence ratio
ATCGGGGGCC | 0.973 ± 0.042
GCTTGGGGTT | 0.98 ± 0.021
TGCGAAAGGA | 1.01 ± 0.016
TTTGTTCGTG | 0.96 ± 0.028
TGGGGATCCG | 1.016 ± 0.0095
GTTTTTGGTA | 0.986 ± 0.021
CCATGACTCT | 0.983 ± 0.016
CGGGGAAACA | 0.9943 ± 0.0077
TCGAAGCCGG | 0.9774 ± 0.0061
AAGGGGCTTT | 1.01 ± 0.025
TTGCTGTTAC | 1.15 ± 0.15
TTTGCCAAAA | 1.14 ± 0.23
CGGCTTACGT | 0.993 ± 0.016
CGGGGGGGCG | 1.03 ± 0.074
GGGTATATGG | 1.01 ± 0.022
ATCAATTCGA | 1.021 ± 0.0038
CCAGTTTTCC | 1.01 ± 0.036
ATTGGGATGC | 1.04 ± 0.02
TAAGTGGTTG | 0.989 ± 0.052
AGAGTCAAGT | 0.969 ± 0.017
CTACGGGCTG | 0.9898 ± 0.0069
GATGTAGGGG | 0.999 ± 0.024
TTTAGAAAAT | 1.01 ± 0.0098

Sequence | switch fluorescence ratio
TAAGAAAAAA | 1.017 ± 0.0075
TATAAAAGGG | 1.03 ± 0.078
ATTGCAGGTT | 0.965 ± 0.01
ATGGTTTGGG | 0.99 ± 0.045
AGAGGCCATC | 0.9831 ± 0.0098
GTTTCGGTTG | 0.972 ± 0.05
CTCGGGGGAG | 0.991 ± 0.026
TTTGTTCACA | 1.06 ± 0.043
TCATAATAGC | 0.977 ± 0.028
CTCGGTGTGG | 1 ± 0.033
ACTTAAAGTC | 0.973 ± 0.029
CACGTGGGCA | 1.01 ± 0.048
GGTCACGGGT | 0.981 ± 0.031
ACCACGGTGT | 2.12 ± 0.075
TACTTTGCTT | 1.06 ± 0.038
GGAGTTGGGT | 0.984 ± 0.08
TTAGGCGTGT | 1.03 ± 0.031
GGTTTAGGGG | 0.985 ± 0.032
TGCGGGAGTA | 1.003 ± 0.0014
TTTTTATCAG | 0.977 ± 0.038
CCAAGCATAG | 3.63 ± 0.47
ATATAGTTTG | 1.001 ± 0.0031
TATCATCGGT | 1 ± 0.047

Sequence | switch fluorescence ratio
CACGGCCGGA | 1.03 ± 0.052
GCAGGTACGC | 1.05 ± 0.033
TGAGCTAATG | 1.04 ± 0.043
CGGTGTAGAG | 0.996 ± 0.0093
CTCGTAATTG | 1.09 ± 0.052
GGGTGATTCC | 1.03 ± 0.014
TTGGGTGCTT | 1.02 ± 0.041
CGAAAGGAA | 1.01 ± 0.011
GCTTTTTTTG | 1.017 ± 0.0079
AGCGGGTTCG | 1 ± 0.054
AATTTTTGTA | 0.984 ± 0.018
TCATTTATGG | 0.999 ± 0.023
TTTATGAGG | 0.997 ± 0.019
GCAGGAAATT | 0.973 ± 0.014
GATTCGTTTT | 1 ± 0.031
CGGTGGCTGG | 0.972 ± 0.036
AGGATCGGTA | 0.987 ± 0.022
TGGAGTAGGG | 0.9874 ± 0.0062
AGCGATTTTT | 1.01 ± 0.053
ACTGTGCGAC | 1.58 ± 0.025
ATCCAGTGTG | 1.89 ± 0.2
ACCAAGGGCT | 0.996 ± 0.034
GGCAGATTCC | 1.05 ± 0.019

Sequence | switch fluorescence ratio
GGGTGTAGTG | 0.988 ± 0.024
TATTTGTCGG | 1.0172 ± 0.00047
GTCGATTTAT | 0.986 ± 0.045
AAGCCTTAAA | 1.06 ± 0.011
GTTGGGGTCG | 0.998 ± 0.037
AGGGATGGTT | 0.982 ± 0.013
CGTTTTTTCG | 1 ± 0.075
TTTGCGTTAC | 1.58 ± 0.053
GATCTACTTG | 0.995 ± 0.017
CGGGTTGGTC | 1.05 ± 0.041
ATTGTTATTA | 1.028 ± 0.0035
CTATTTCGGG | 0.979 ± 0.052
CATCGATTGT | 1 ± 0.019
TTAAGATATT | 0.9797 ± 0.0066
TAAGATGGG | 1.01 ± 0.019
CGTTTTGCAT | 1.09 ± 0.11
ACTTGCTTGT | 1.02 ± 0.013
AGGGTTGTTG | 0.999 ± 0.015
TTTGAGTCAT | 0.9713 ± 0.0092

Source: the supplement of paper PMC10126150
